Source: patent US20260116921A1, “PEPTIDE INHIBITORS OF INTERLEUKIN-23 RECEPTOR AND THEIR USE TO TREAT INFLAMMATORY DISEASES” (priority 2018, published 2026)
Bridge positions count the residues as written; N and C are the ends. Square brackets hold non-standard residues; d marks the D form. Trp(7-Me) = Cc1cccc2c(C[C@H](N)C(=O)O)c[nH]c12; 2Nal = N[C@@H](Cc1ccc2ccccc2c1)C(=O)O; AEF = NCCOc1ccc(C[C@H](N)C(=O)O)cc1; Cit = NC(=O)NCCC[C@H](N)C(=O)O; αMeL = CC(C)C[C@](C)(N)C(=O)O; Pen = CC(C)(S)[C@H](N)C(=O)O; αMeK = C[C@](N)(CCCCN)C(=O)O; Aib = CC(C)(N)C(=O)O; βAla = NCCC(=O)O

B1: SEQ ID NO: 203 (peptide)
peptide: RXQTXQCXXXENX
modifications: Ac-[(D)Arg]-Abu-Q-T-[W(7-Me)]-Q-C-Phe[4-(2-aminoethoxy)]-[2-Nal]-[THP]-E-N-[bA]-NH2; Abu-Cys thioether
B2: SEQ ID NO: 271 (peptide)
peptide: XNTXKXXXXKSX
modifications: Ac-[Pen]-N-T-[W(7-Me)]-[Lys(Ac)]-[Pen]-Phe[4-(2-aminoethoxy)]-[2-Nal]-[a-MeLys]-[Lys(Ac)]-S-[bA]-NH2; Pen-Pen disulfide
B3: SEQ ID NO: 278 (peptide)
peptide: XNTXQXXXXKNX
modifications: Ac-[Pen]-N-T-[W(7-Me)]-Q-[Pen]-Phe[4-(2-aminoethoxy)]-[2-Nal]-[a-MeOrn]-[Lys(Ac)]-N-[bA]-NH2; Pen-Pen disulfide
B4: SEQ ID NO: 282 (peptide)
peptide: XNTXQXXXXENX
modifications: Ac-[Pen]-N-T-[W(7-Me)]-Q-[Pen]-Phe[4-(2-aminoethoxy)]-[2-Nal]-[a-MeLys]-E-N-[bA]-NH2; Pen-Pen disulfide
B5: SEQ ID NO: 272 (peptide)
peptide: XNTXKXXXXKHX
modifications: Ac-[Pen]-N-T-[W(7-Me)]-[Lys(Ac)]-[Pen]-Phe[4-(2-aminoethoxy)]-[2-Nal]-[a-MeLys]-[Lys(Ac)]-H-[bA]-NH2; Pen-Pen disulfide
B6: SEQ ID NO: 251 (peptide)
peptide: XNTXKXXXXKNV
modifications: Ac-[Pen]-NT-[W(7-Me)]-[Lys(Ac)]-[Pen]-Phe[4-(2-aminoethoxy)]-[2-Nal]-[a-MeLys]-[Lys(Ac)]-N-[(D)Val]-NH2; Pen-Pen disulfide
B7: SEQ ID NO: 208 (peptide)
peptide: XNTXQXXXXKLX
modifications: Ac-[Pen]-NT-[W(7-Me)]-Q-[Pen]-Phe[4-(2-aminoethoxy)]-[2-Nal]-[a-MeLeu]-[Lys(Ac)]-L-[bA]-NH2; Pen-Pen disulfide
B8: SEQ ID NO: 242 (peptide)
peptide: XNTXKXXXXKNX
modifications: Ac-[Pen]-NT-[W(7-Me)]-[Lys(Ac)]-[Pen]-Phe[4-(2-aminoethoxy)]-[2-Nal]-[a-MeLys]-[Lys(Ac)]-N-[bA]-NH2; Pen-Pen disulfide
B9: SEQ ID NO: 201 (peptide)
peptide: XNTXQXXXXKNX
modifications: Ac-[Pen]-NT-[W(7-Me)]-Q-[Pen]-Phe[4-(2-aminoethoxy)]-[2-Nal]-[a-MeLeu]-[Lys(Ac)]-N-[bA]-NH2; Pen-Pen disulfide
B10: SEQ ID NO: 202 (peptide)
peptide: XNTXQXXXXKNX
modifications: Ac-[Pen]-NT-[W(7-Me)]-Q-[Pen]-Phe[4-(2-aminoethoxy)]-[2-Nal]-[a-MeLys]-[Lys(Ac)]-N-[bA]-NH2; Pen-Pen disulfide
B11: SEQ ID NO: 245 (peptide)
peptide: XNTXKXXXXKNL
modifications: Ac-[Pen]-NT-[W(7-Me)]-[Lys(Ac)]-[Pen]-Phe[4-(2-aminoethoxy)]-[2-Nal]-[a-MeLys]-[Lys(Ac)]-N-[(D)Leu]-NH2; Pen-Pen disulfide
B12: SEQ ID NO: 224 (peptide)
peptide: XNTXQXXXXKXX
modifications: Ac-[Pen]-NT-[W(7-Me)]-Q-[Pen]-Phe[4-(2-aminoethoxy)]-[2-Nal]-[a-MeLeu]-[Lys(Ac)]-[Sarc]-[bA]-NH2; Pen-Pen disulfide
B13: SEQ ID NO: 232 (peptide)
peptide: XNTXQXXXXKNX
modifications: Ac-[Pen]-NT-[W(1-Me)]-Q-[Pen]-Phe[4-(2-aminoethoxy)]-[2-Nal]-[a-MeLys]-[Lys(Ac)]-N-[bA]-NH2; Pen-Pen disulfide
B14: SEQ ID NO: 211 (peptide)
peptide: XNTXQXXXXKPX
modifications: Ac-[Pen]-NT-[W(7-Me)]-Q-[Pen]-Phe[4-(2-aminoethoxy)]-[2-Nal]-[a-MeLeu]-[Lys(Ac)]-P-[bA]-NH2; Pen-Pen disulfide
B15: SEQ ID NO: 207 (peptide)
peptide: XNTXQXXXXKAX
modifications: Ac-[Pen]-NT-[W(7-Me)]-Q-[Pen]-Phe[4-(2-aminoethoxy)]-[2-Nal]-[a-MeLeu]-[Lys(Ac)]-A-[bA]-NH2; Pen-Pen disulfide

Tests used:
IL-23R [1] = molecular target: T1, IL-23R (human, UniProt Q5VWK5 24-629); experiment: cell-based or functional assay
T1 sequence (looked up): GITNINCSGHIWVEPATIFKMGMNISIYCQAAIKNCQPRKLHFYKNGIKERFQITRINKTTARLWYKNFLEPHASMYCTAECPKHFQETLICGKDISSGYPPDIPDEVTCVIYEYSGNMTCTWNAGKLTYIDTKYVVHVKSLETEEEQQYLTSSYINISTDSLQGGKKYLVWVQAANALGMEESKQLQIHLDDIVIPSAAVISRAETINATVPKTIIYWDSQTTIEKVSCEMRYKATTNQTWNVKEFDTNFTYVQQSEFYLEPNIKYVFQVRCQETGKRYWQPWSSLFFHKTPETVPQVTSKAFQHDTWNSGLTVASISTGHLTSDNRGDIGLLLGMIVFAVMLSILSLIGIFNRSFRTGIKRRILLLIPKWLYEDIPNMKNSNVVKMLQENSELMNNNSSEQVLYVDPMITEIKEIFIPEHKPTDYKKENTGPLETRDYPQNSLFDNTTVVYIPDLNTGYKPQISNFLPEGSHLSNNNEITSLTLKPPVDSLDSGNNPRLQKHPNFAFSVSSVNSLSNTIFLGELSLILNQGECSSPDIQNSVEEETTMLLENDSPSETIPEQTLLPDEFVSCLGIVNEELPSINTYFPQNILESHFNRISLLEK

IL-23R [2] = molecular target: T1, IL-23R; experiment: cell-based or functional assay; remark: listed apart in the source

| Binder | NK Cell Assay (nM) IC50 (IL-23R [1]) | pStat3 HTRF (nM) IC50 (IL-23R [2]) |
| --- | --- | --- |
| B1 | < 10 nM |  |
| B2 | < 10 nM |  |
| Ac-[Pen]NT[Trp(7-Me)]K(Ac)[Pen][2Nal][2Nal][αMeK]K(Ac)N[dL]-NH2 (disulfide 1-6 (inferred)) [SEQ ID NO: 289] | < 10 nM |  |
| B3 | < 10 nM | < 1 nM |
| B4 | < 10 nM |  |
| Ac-[Pen]NT[Trp(7-Me)][Cit][Pen][AEF][2Nal][αMeK]K(Ac)N[Aib]-NH2 (disulfide 1-6 (inferred)) [SEQ ID NO: 264] | < 10 nM | < 1 nM |
| Ac-[Pen]NT[Trp(7-Me)][Cit][Pen][AEF][2Nal][αMeL]K(Ac)N[βAla]-NH2 (disulfide 1-6) [SEQ ID NO: 227] | < 10 nM | < 1 nM |
| B5 | < 10 nM |  |
| B6 | < 10 nM | < 1 nM |
| B7 | < 10 nM |  |
| B8 | < 10 nM | < 1 nM |
| B9 | < 10 nM | < 1 nM |
| B10 | < 10 nM |  |
| B11 | < 10 nM | < 1 nM |
| B12 |  | > 100 nM |
| B13 | < 10 nM |  |
| B14 |  | > 100 nM |
| B15 | < 10 nM |  |
